Legend:
[1] = target: HLA-A*01:01; assay: IEDB peptide-MHC binding, purified MHC/direct/fluorescence; filed as Kd, often an IC50 or EC50 that approximates it; ≥ and ≤ were set here for values at or beyond the usual limits of such assays
[2] = target: HLA-B*18:01; assay: as above
[3] = target: HLA-B*44:02; assay: as above; details: source organism: Influenza A virus (A/chicken/Vietnam/5/2003(H5N1))
[4] = target: HLA-A*24:02; assay: as above
[5] = target: HLA-B*46:01; assay: as above
[6] = target: HLA-A*03:01; assay: as above; details: source organism: Influenza A virus (A/Puerto Rico/8/34/Mount Sinai(H1N1))
[7] = target: HLA-B*08:02; assay: as above
[8] = target: HLA-B*15:01; assay: as above; details: source organism: Influenza A virus (A/chicken/Vietnam/5/2003(H5N1))
[9] = target: HLA-B*27:05; assay: as above
[10] = target: HLA-B*08:01; assay: as above; details: source organism: Influenza A virus (A/chicken/Vietnam/5/2003(H5N1))
[11] = target: HLA-B*07:02; assay: as above; details: source organism: Influenza A virus (A/chicken/Vietnam/5/2003(H5N1))
[12] = target: HLA-B*40:01; assay: as above
[13] = target: HLA-A*02:01; assay: as above; details: source organism: Influenza A virus (A/chicken/Vietnam/5/2003(H5N1))
[14] = target: HLA-B*58:01; assay: as above
[15] = target: HLA-B*15:17; assay: as above; details: source organism: Mycobacterium tuberculosis
[16] = target: HLA-A*69:01; assay: as above; details: source organism: Mycobacterium tuberculosis
[17] = target: HLA-B*08:03; assay: as above; details: source organism: Mycobacterium tuberculosis C
[18] = target: HLA-A*11:01; assay: as above; details: source organism: Mycobacterium tuberculosis
[19] = target: HLA-B*57:01; assay: as above; details: source organism: Mycobacterium tuberculosis
[20] = target: HLA-A*31:01; assay: as above; details: source organism: Mycobacterium tuberculosis
[21] = target: HLA-B*48:01; assay: as above; details: source organism: Mycobacterium tuberculosis
[22] = target: HLA-A*26:01; assay: as above; details: source organism: Mycobacterium tuberculosis C
[23] = target: HLA-A*30:01; assay: IEDB peptide-MHC binding, purified MHC/competitive/fluorescence; filed as Kd, often an IC50 or EC50 that approximates it; ≥ and ≤ were set here for values at or beyond the usual limits of such assays; details: source organism: Mycobacterium tuberculosis C
[24] = target: HLA-A*68:02; assay: as above; details: source organism: Mycobacterium tuberculosis C
[25] = target: HLA-B*15:01; assay: as above; details: source organism: Mycobacterium tuberculosis C
[26] = target: HLA-B*08:01; assay: as above; details: source organism: Mycobacterium tuberculosis C
[27] = target: HLA-A*26:03; assay: as above; details: source organism: Mycobacterium tuberculosis C
[28] = target: HLA-B*07:02; assay: as above; details: source organism: Mycobacterium tuberculosis C
[29] = source organism: Influenza A virus (A/chicken/Vietnam/5/2003(H5N1))
[30] = source organism: Mycobacterium tuberculosis

QTYDWTLNR
Kd [1, 29]: ≥ 20 µM
Kd [2, 29]: ≥ 20 µM
Kd [3]: ≥ 20 µM
Kd [4, 29]: ≥ 20 µM
Kd [5, 29]: ≥ 20 µM
Kd [6]: 0.376 µM
Kd ([7]; source organism: Influenza A virus(A/swine/Henan/3/2004(H9N2))): ≥ 20 µM
Kd [8]: ≥ 20 µM
Kd [9, 29]: ≥ 20 µM
Kd [10]: ≥ 20 µM
Kd [11]: ≥ 20 µM
Kd [12, 29]: ≥ 20 µM
Kd [13]: ≥ 20 µM
Kd [14, 29]: ≥ 20 µM

RYLNIYQLW
Kd ([4]; source organism: Cryptosporidium parvum Iowa II): 0.002 µM

TIHLATAPK
Kd [1, 30]: ≥ 20 µM
Kd [15]: ≥ 20 µM
Kd [2, 30]: ≥ 20 µM
Kd [16]: 2.33 µM
Kd [5, 30]: ≥ 20 µM
Kd ([7]; source organism: Mycobacterium tuberculosis C): ≥ 20 µM
Kd [9, 30]: ≥ 20 µM
Kd [17]: ≥ 20 µM
Kd [12, 30]: ≥ 20 µM
Kd [18]: 0.0087 µM
Kd [19]: ≥ 20 µM
Kd [20]: 0.653 µM
Kd [21]: ≥ 20 µM
Kd [22]: ≥ 20 µM
Kd [14, 30]: ≥ 20 µM
Kd [23]: 0.0002 µM
Kd [24]: 0.76 µM
Kd [25]: ≥ 20 µM
Kd [26]: ≥ 20 µM
Kd [27]: ≥ 20 µM
Kd [28]: ≥ 20 µM
